The target in the assay is T1, human DR3 (full length, on cells) (human) (UniProt Q93038).
T1 sequence: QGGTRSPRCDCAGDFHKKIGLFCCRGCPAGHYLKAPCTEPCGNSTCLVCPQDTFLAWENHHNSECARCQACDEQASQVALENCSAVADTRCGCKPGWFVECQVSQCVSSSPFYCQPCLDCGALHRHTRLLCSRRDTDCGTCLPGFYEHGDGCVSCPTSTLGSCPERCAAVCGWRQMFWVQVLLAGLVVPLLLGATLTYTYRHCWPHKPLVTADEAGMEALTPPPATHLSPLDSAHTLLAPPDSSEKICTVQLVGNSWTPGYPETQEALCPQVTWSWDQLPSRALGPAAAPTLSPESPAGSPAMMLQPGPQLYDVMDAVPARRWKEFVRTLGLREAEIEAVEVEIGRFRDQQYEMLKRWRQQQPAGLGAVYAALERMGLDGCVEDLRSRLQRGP
Briefly: cell-based or functional assay.

B1: TL1A (R&D Systems) (ligand, UniProt O95150 72-251, looked up)
chain: LKGQEFAPSHQQVYAPLRADGDKPRAHLTVVRQTPTQHFKNQFPALHWEHELGLAFTKNRMNYTNKFLLIPESGDYFIYSQVTFRGMTSECSEIRQAGRPNKPDSITVVITKVTDSYPEPTQLLMGTKSVCEVGSNWFQPIYLGAMFSLQEGDKLMVNVSDISLVDYTKEDKTFFGAFLL
B1 came in with a fold response, DR3 reporter, 40 ng/ml TL1A alone of 32.8 fold.

The values above are taken from patent US20170305994A1.
